“Also recorded” adds a separate entry of the source. Where a SMILES comes first, the peptide text is derived from it. [ ]: non-standard residue; d: D form. The star is where a group is joined. ξ: configuration not given here. HYNIC = NNc1ccc(C(=O)*)cn1; PEG3 = NCCOCCOCCOCCC(=O)O; ξK = NCCCCC(N)C(=O)O
Tests used:
[1] = tested on: abdominal aorta aneurysm (AAA) rat model of vascular inflammation; assay: SPECT/CT imaging in abdominal aorta aneurysm (AAA) model; assay type: in vivo; details: for Pattern of biodistribution / blood clearance route (in words): AAA rat, 74 MBq i.v., SPECT/CT
Description: Rat model of vascular inflammation that has been set up at the laboratory: the experimental abdominal aorta aneurysm (AAA) induced by local infusion of elastase and followed by intravenous injection of a periodontal bacterium present in human AAA (Porphyromonas gingivalis) and known to induce AAA inflammation (Delbosc et al., 2011, PLoS ONE 6(4): e18679. doi:10.1371/journal.pone.0018679).
Immediately after intravenous injection via the penis vein of 74 MBq of radiolabelled HYNIC-P8RI (obtained using Tricine/EDDA), sequential whole-body acquisitions (every 10 minutes for the first hour) were performed with a hybrid SPECT/CT camera (NanoSPECT/CT, Bioscan Inc.) dedicated to small animals. 10. […] Results 1. Radiolabeling 6-Hydrazinopyridine-3-carboxylic acid (HYNIC) was coupled to the N-terminal amino-acid of the P8RI peptide via a 3(PEG) spacer to obtain HYNIC-P8RI. HYNIC-P8RI was then labeled at high specific activities (>71 GBq/μmol) using tricine, EDDA or Tricine/EDDA as coligands. The tricine/EDDA exchange labeling strategy was chosen because of high labeling yield and resulting in a single major specie as analyzed by HPLC (see FIG. 1).

[2] = 37° C.
Description: (§1) A Dionex Ultimate 3000 system coupled to a Berthold radiometric detector was used for RP-HPLC analysis. A ACE 3 C18, 3μ, 100 Å, 150×4.6 mm column, at a flow rate of 1 mL/min and with UV detection at 220 nm, was employed with the following mobile phases, A: 0.1% TFA/water), B Acetonitrile (ACN). Gradient was: 0-2 min 23% B, 2-20 min 23-50% B, 20-23 min 50-100% B, 23-25 min 100-23% B, 25-28 min 23% B. 2.2 Thin Layer Chromatography TLC was performed using a radiochromatogaph (MiniGita, Raytest, Germany). Stationary phase was silica gel (ITLC-SG, Agilent technologies, USA) and different mobile phases were employed. MEK was used to determine the amount of free ^99mTcO4^− (Rf=1), Anticoagulant Citrate Dextrose Solution (ACD-A, Baxter International, USA) to determine non-peptide-bound ^99mTc-coligands and ^99mTcO4^− (Rf=1), 60% ACN for ^99mTc-colloid (Rf=0). […] In Vitro Stability Study Stability of ^99mTc complexes was assessed in fresh human plasma at 37° C. after 0 min, 30 min, 1 hour, 2 hours and 4 hours of incubation at a concentration of 100 μmol/mL. […] Supernatants were collected and filtered (Millex-GV 0.22 μm PVDF, Merck Millipore, Germany) then assessed by radio-HPLC. […] After one hour, rat was sacrificed and urine was directly collected from the bladder using a syringe and analyzed by radio-HPLC after a 0.22 μm filtration (Millex-GV 0.22 μm PVDF, Merck Millipore, Germany). […]

[3] = male wistar rat, 74 MBq, urine from bladder 1 hour after injection; listed as [99mTc]EDDA/HYNIC-P8RI
Description: as §1

[4] = tested on: plasma proteins; assay: in vitro; details: human, fresh human plasma
Description: as §1

## CC(C)C[C@@H](NC(=O)[C@@H](C)NC(=O)[C@H]1CCCN1C(=O)[C@@H](Cc1c[nH]c2ccccc12)NC(=O)C(CCCCN)NC(=O)CCOCCOCCOCCNC(=O)c1ccc(NN)nc1)C(=O)N[C@H](Cc1ccccc1)C(=O)N[C@@H](C(=O)N[C@H](CCCNC(=N)N)C(=O)O)C(C)C (stereo partly drawn) [99mTc-HYNIC-P8RI, metal not drawn] ({HYNIC-PEG3}-[ξK][dW][dP][dA][dL][dF][dV][dR]-OH)
[1]
  Pattern of biodistribution / blood clearance route (in words): almost exclusive renal uptake and excretion
[1]; listed as [99mTc]EDDA/HYNIC-P8RI
  Pattern of biodistribution / blood clearance route (in words): tracer elimination via kidneys; also recorded: almost exclusively renal
[1]; in vivo, rat
  Blood clearance rate (in words): rapid blood clearance
[1]; rat, i.v. injection
  Time of peak activity in kidneys and bladder after injection: 1 h
[2]; 4 h of incubation, tricine/EDDA coligands
  RCP (radiochemical purity) after incubation in human plasma: > 89%
[2]; up to 4 h, radio-HPLC, listed as [99mTc]EDDA/HYNIC-P8RI
  In vitro stability in human plasma (in words): no significant release of degraded radiolabelled peptide
[3]
  In vivo stability: species excreted in rat urine by radio-HPLC (in words): unaltered form of the peptide
[4]
  fraction unbound at 4 h: > 0.95

Reference: US11098124B2, “CD31 shed as a molecular target for imaging of inflammation” (INSTITUT NATIONAL DE LA SANTE ET DE LA RECHERCHE MEDICALE …, priority 2016, dated 2021)
